The Km is the concentration of substrate that gives half-maximal velocity. For orientation: kcat means the maximal rate divided by the concentration of active sites. Broadly, the kcat/Km is the turnover number divided by the Michaelis constant. For orientation: stoichiometry N means a count of units in the complex or per binding partner.

This is an account of results in paper PMC7922139, “Characterization of a Yellow Laccase from Botrytis cinerea 241” (Journal of Fungi, 2021).

Series [1] relates to CCn1c(=NN=c2sc3cc(S(=O)(=O)O)ccc3n2CC)sc2cc(S(=O)(=O)O)ccc21. Briefly: purified protein. As to conditions: 50 mM sodium acetate pH 5.5, 25 °C.
Series [2] has as its system CN(C)CCCN1c2ccccc2Sc2ccccc21. The series can be described thus: purified protein. As to conditions: 50 mM sodium acetate pH 5.5, 25 °C.
Series [3] concerns COc1cc(/C=C/C(=O)O)cc(OC)c1O. The series can be described thus: purified protein. As to conditions: 50 mM sodium acetate pH 5.5, 25 °C.
In a further series the test system is COc1cc(C(=O)O)cc(OC)c1O. The series can be described thus: purified protein. As to conditions: 50 mM sodium acetate pH 5.5, 25 °C.
Series [4] deals with COc1cc(C=NN=Cc2cc(OC)c(O)c(OC)c2)cc(OC)c1O. Briefly: purified protein. Conditions: 50 mM sodium acetate pH 5.5, 25 °C.
A further series has as its system Nc1ccc(N)cc1. Briefly: purified protein. Conditions: 50 mM sodium acetate pH 5.5, 25 °C.
The subject of series [5] is O=C(O)/C=C/c1ccc(O)c(O)c1. The series can be described thus: purified protein. Conditions: 50 mM sodium acetate pH 5.5, 25 °C.
Series [6] deals with O=C(O)CCN1c2ccccc2Oc2ccccc21. Briefly: purified protein. As to conditions: 50 mM sodium acetate pH 5.5, 25 °C.
A further series deals with O=C(O)c1cc(O)c(O)c(O)c1. Briefly: purified protein. As to conditions: 50 mM sodium acetate pH 5.5, 25 °C.
The test system of series [7] is O=c1c(O)c(-c2ccc(O)c(O)c2)oc2cc(O)cc(O)c12. Briefly: purified protein. As to conditions: 50 mM sodium acetate pH 5.5, 25 °C.
The test system of series [8] is O=c1c(O)c(-c2ccc(O)c(O)c2)oc2cc(O)ccc12. Briefly: purified protein. As to conditions: 50 mM sodium acetate pH 5.5, 25 °C.
In series [9] the test system is O=c1c(O)c(-c2ccc(O)cc2)oc2cc(O)cc(O)c12. Briefly: purified protein. Conditions: 50 mM sodium acetate pH 5.5, 25 °C.
The test system of another series is OCCN1c2ccccc2Oc2ccccc21. Briefly: purified protein. Conditions: 50 mM sodium acetate pH 5.5, 25 °C.
The next series relates to Oc1ccc(O)cc1. Briefly: purified protein. As to conditions: 50 mM sodium acetate pH 5.5, 25 °C.
Another series has as its system Oc1ccccc1O. The series can be described thus: purified protein. Conditions: 50 mM sodium acetate pH 5.5, 25 °C.
Series [10] concerns the target yellow laccase Bcl1 from Botrytis cinerea strain 241 (Botrytis cinerea strain 241). Briefly: SEC; Superdex 200 5/150 GL analytical column, 50 mM Tris-HCl, 150 mM NaCl, pH 8; mass read against standards (apoferritin, beta-amylase, alcohol dehydrogenase, albumin) and compared with the mass by SDS-PAGE. (SEC sorts molecules by how far they enter the pores of the column.)

On to Bcl1 laccase (Botrytis cinerea), for which the Km was found to be 13.8 ± 0.2 µM in series [1]; 60.0 ± 10 µM in series [2]; 60.0 ± 10 µM in series [3]; 74.0 ± 12 µM in the series on COc1cc(C(=O)O)cc(OC)c1O; 0.7 ± 0.1 µM in series [4]; 150.0 ± 20 µM in the series with Nc1ccc(N)cc1. Besides, the Km in series [5] turned out to be 15.0 ± 1 µM; in series [6], 6.0 ± 0.8 µM; in the series with O=C(O)c1cc(O)c(O)c(O)c1, 27.0 ± 8 µM; in [7] it was 3.7 ± 0.8 µM; in series [8], 1.5 ± 0.1 µM; in [9], 8.6 ± 0.1 µM. The figures for the Km in the series on OCCN1c2ccccc2Oc2ccccc21 and with Oc1ccccc1O were 40.0 ± 7 µM and 70.0 ± 4 µM, respectively. In addition, the kcat in [1] was determined as 29 ± 1 s⁻¹; in series [2], 7.1 ± 0.3 s⁻¹; in series [3], 100 ± 10 s⁻¹; in the series with COc1cc(C(=O)O)cc(OC)c1O, 3.4 ± 0.5 s⁻¹; in series [4], 30 ± 2 s⁻¹; in the series with Nc1ccc(N)cc1, 15 ± 1 s⁻¹. The kcat came to 13 ± 1 s⁻¹ in series [5]; 33 ± 1 s⁻¹ in [6]; 20 ± 3 s⁻¹ in the series on O=C(O)c1cc(O)c(O)c(O)c1; 6.7 ± 0.4 s⁻¹ in series [7]; 7.8 ± 0.3 s⁻¹ in series [8]; 25 ± 2 s⁻¹ in the series with OCCN1c2ccccc2Oc2ccccc21. The kcat in the series with Oc1ccc(O)cc1 came to 21.4 ± 0.3 s⁻¹; in the series with Oc1ccccc1O, 28 ± 1 s⁻¹. Also, the kcat/Km was 2.1e+06 ± 100000 M⁻¹ s⁻¹ in series [1]; 46000 ± 5000 M⁻¹ s⁻¹ in the series with COc1cc(C(=O)O)cc(OC)c1O; 4.3e+07 ± 7e+06 M⁻¹ s⁻¹ in series [4]; 100000 ± 2000 M⁻¹ s⁻¹ with Nc1ccc(N)cc1; 870000 ± 200000 M⁻¹ s⁻¹ in series [5]; 5.5e+06 ± 800000 M⁻¹ s⁻¹ in series [6]. For the same substance, the kcat/Km with O=C(O)c1cc(O)c(O)c(O)c1 turned out to be 740000 ± 200000 M⁻¹ s⁻¹; in series [7], 1.8e+06 ± 300000 M⁻¹ s⁻¹; in series [8] it was 5.2e+06 ± 900000 M⁻¹ s⁻¹; in series [9], 2e+06 ± 400000 M⁻¹ s⁻¹; in the series with OCCN1c2ccccc2Oc2ccccc21, 630000 ± 30000 M⁻¹ s⁻¹; with Oc1ccc(O)cc1 it was 97000 ± 2000 M⁻¹ s⁻¹. The kcat/Km with Oc1ccccc1O is 400000 ± 20000 M⁻¹ s⁻¹.

For the substance “yellow laccase Bcl1 from Botrytis cinerea strain 241 (enzyme)”, the stoichiometry N in series [10] was found to be 2.
